Results: US20260185102A1, “LIGAND-BINDING NUCLEIC ACID COMPLEX” (RENA THERAPEUTICS INC., priority 2021, published 2026)
In the oligonucleotide strings, read from the 5' end, every base follows the letter of its sugar. An asterisk marks phosphorothioate; unmarked linkages are phosphodiester. Other units and linkages are bracketed, terminal groups are in braces. A string of capitals states the bases alone. Where no end group is shown, it is not given here. [ ]: non-standard residue; d: D form. {L001} = PTH1 ligand L001 attached via a dibenzocyclooctyne-succinyl-hexylamino linker; l = locked nucleic acid (LNA); [5mC] = 5-methylcytosine; Aib = CC(C)(N)C(=O)O; d = 2'-deoxy (DNA); m = 2'-O-methyl; r = 2'-OH (RNA)

Columns and labels:
[1] = Intrarenal distribution, immunostained kidney images after L001-HDO6-Alexa488 (Example 4); format: in vivo, mouse; conditions: 1 μmol/kg, c57BL/6J mice
Method: The fluorescence-labeled ASO comprising Alexa488 bound to the 5′ terminus of the antisense strand (SEQ ID NO: 179) prepared in Example 2 was annealed to the L001 complementary strand (SEQ ID NO: 180) by the method described in Example 2 to form a duplex complex. Thus, the fluorescence-labeled HDO (L001-HDO6-Alexa488) was prepared.
The immunohistochemical test was performed with the use of c57BL/6J mice (12 mice). The fluorescence-labeled HDO (L001-HDO6-Alexa488) was intravenously administered to mice at […] once, a blood sample was taken from the heart under anesthesia with isoflurane 10 minutes, 6 hours, 24 hours, and 72 hours later, the kidney was perfused by left ventricular cannulation with 10 ml of saline followed by 10 ml of 4% paraformaldehyde solution, and the kidney was extracted from the mice. The extracted kidney was soaked in 4% paraformaldehyde to prepare frozen sections. The frozen sections were stained with Nephrin (the primary antibody: mouse Nephrin affinity purified polyclonal antibody, Goat IgG (AF3459), R&D Systems) and Alexa Fluor 594 (the secondary antibody: chicken anti-goat IgG (H+L) (A-21468), Invitrogen) to observe the renal glomerulus, and the frozen sections were stained with a DAPI (4′,6-diamidino-2-phenylindole) solution to observe the DNA-containing cell nuclei. The fluorescent images of the pathological sections were incorporated with the use of the Olympus VS120 Slide Scanning System.
The photograph in the lower right is an image obtained by superposing the aforementioned 3 photographs superposed on top of each other (merged).

[2] = Tm of ligand-bound HDO6 duplex; format: physicochemical; conditions: HDO6 with ligand introduced into complementary strand
mouse Malat1 ncRNA [3] = assay: Malat1 ncRNA expression in mouse kidney after intravenous or subcutaneous PTH1 ligand-HDO (Example 5); format: in vivo; conditions: intravenous, 1 μmol/kg
Method: The nucleic acid complexes used in Example 5 are each a conjugate of 16-mer HDO or ASO targeting mouse Malat1 ncRNA prepared in the example above and the PTH1 ligand. The present inventors adjusted the oligo complex with physiological saline (Otsuka Pharmaceutical Co., Ltd.), the oligo complex for animal evaluation was denatured in a block bath (CDB-105, AS ONE Corporation), and the double-stranded HDO for cell evaluation was subjected to an annealing procedure comprising denaturing at 90° C. for 10 minutes and then naturally cooling to room temperature over a period of about 2 hours in a T100 thermal cycler (Bio-Rad). […]
For mRNA extraction, tissue was fractured by bead crushing using a TissueLyser II (QIAGEN). Total RNA was extracted from the solution containing fractured tissue using the ReliaPrep™ RNA Tissue Miniprep System (Promega Corporation). cDNA was prepared from total RNA by reverse transcription using the PrimeScript™ RT Master Mix (TaKaRa). mRNA expression of each gene was measured using the real-time PCR system (StepOnePlus, Applied Biosystems). […]
All the measured values were indicated in terms of “mean±standard deviation.” Statistical analysis was performed using GraphPad Prism 9.4.0. […]

mouse Malat1 ncRNA [4] = assay: mMalat1 ncRNA expression in mouse liver and kidney after intravenous L001-HDO6 (Example 3); format: in vivo; conditions: c57BL/6J mice, 1 μmol/kg intravenous, Day 3; compared with vehicle and L001 complementary strand groups
Method: The nucleic acid complex used in Example 3 is L001-HDO6, which is a conjugate of 16-mer HDO targeting mouse Malat1 ncRNA prepared in Example 2 and the L001 ligand. The present inventors adjusted the oligo complex to 100 μM with physiological saline (Otsuka Pharmaceutical Co., Ltd.), and double-stranded HDO was subjected to an annealing procedure comprising denaturing at 90° C. for 5 minutes and then naturally cooling to room temperature over a period of about 2 hours in a block bath (CDB-105, AS ONE Corporation).
Species differences in the PTH1 receptor, PTH, and PTHrP are insignificant between humans and mice. […]
Method Mice were divided into groups depending on body weights: the vehicle (saline, Otsuka Pharmaceutical Co., Ltd.) administration group; the L001 complementary strand (1 μmol/kg) administration group; and the L001-HDO6 (1 μmol/kg) administration group (each group consisting of 5 mice (n=5)). […] On the day of autopsy, body weight of each mouse was measured, a blood sample was taken from the heart under anesthesia with isoflurane (introduced at 3% to 5%, maintained at 1% to 3%) (Terumo syringe SS-01P2525, containing the anticoagulant heparin), and mice were euthanized by exsanguination. […]
All the measured values were indicated in terms of “mean±standard deviation.” For statistical analysis, the one-way analysis of variance (ANOVA) was performed using GraphPad Prism 7.04. […]

[5] = molecular target: T1, mouse Pth1R (mPth1R), stably expressed on NIH/3T3 cells (mouse, UniProt P41593 27-591); assay: cell-based or functional assay
T1 sequence (looked up): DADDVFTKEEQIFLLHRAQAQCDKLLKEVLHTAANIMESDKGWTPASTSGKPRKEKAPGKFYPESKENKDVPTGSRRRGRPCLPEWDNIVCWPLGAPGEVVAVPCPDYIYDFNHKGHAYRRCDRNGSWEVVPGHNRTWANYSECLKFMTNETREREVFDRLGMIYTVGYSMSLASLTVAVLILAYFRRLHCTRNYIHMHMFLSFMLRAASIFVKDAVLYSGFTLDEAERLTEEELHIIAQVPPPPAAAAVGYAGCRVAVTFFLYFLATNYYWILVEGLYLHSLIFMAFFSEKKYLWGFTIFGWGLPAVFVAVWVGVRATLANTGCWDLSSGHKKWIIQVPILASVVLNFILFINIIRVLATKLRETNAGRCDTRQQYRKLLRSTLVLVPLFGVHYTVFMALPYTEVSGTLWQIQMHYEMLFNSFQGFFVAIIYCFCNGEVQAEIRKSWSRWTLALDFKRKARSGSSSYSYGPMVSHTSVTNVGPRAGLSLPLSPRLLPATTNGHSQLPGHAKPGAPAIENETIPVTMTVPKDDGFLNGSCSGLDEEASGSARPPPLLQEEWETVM

[6] = 10 minutes after single intravenous administration

## L001-HDO6: HDO targeting mouse Malat1 ncRNA: antisense strand SEQ ID NO: 179, complementary strand SEQ ID NO: 180 bound to PTH1 ligand L001 (antisense l[5mC]*lT*lA*dG*dT*dT*dC*dA*dC*dT*dG*dA*dA*lT*lG*l[5mC]; sense {L001}-mG*mC*mA*rUrUrCrArGrUrGrArArC*mU*mA*mG)
[1]; 6, 24, or 72 hours after single intravenous administration
  fluorescence Alexa-488 in the glomerulus: no fluorescence was observed
[1]; [6]
  fluorescence Alexa-488 in kidney tubular cells: observed
  fluorescence Alexa-488 in the glomerulus: slightly observed
[1]; 6 hours after single intravenous administration
  fluorescence Alexa-488 in kidney tubular cells: intensified
[1]; 24 hours after single intravenous administration
  fluorescence Alexa-488 in kidney tubular cells: maximum fluorescence was observed
[1]; 72 hours after single intravenous administration
  fluorescence Alexa-488 in kidney tubular cells: still observed in many kidney tubules
[2]
  Tm: 64 °C
Mouse Malat1 ncRNA [3]; Day 3, compared with the saline administration group
  Malat1 ncRNA expression in the kidney: lowered to a statistically significant extent
Mouse Malat1 ncRNA [3]; Day 3, in comparison with HDO without ligand
  Malat1 ncRNA expression in the kidney: lowered to a statistically significant extent
Mouse Malat1 ncRNA [4]
  mMalat1 ncRNA expression level in the kidney: lowered in the L001-HDO6 administration group to a significant extent
  mMalat1 ncRNA expression level in the liver: lowered in the L001-HDO6 administration group to a significant extent

B1: L010-HDO6 (peptide)
peptide: DKGKSIQDLRRRELLEKLLAKLHKA
modifications: not fully specified (residue 24); printed as DKGKSIQDLRRRELLEKLLAKLH(K-PEG3-Unit)A
[5]
  IC50 of lowering Malat1 ncRNA expression level in the mPth1R-stably expressing cell line: 167 nM

## AVSEHQLLHDKGKSIQDLRRRELLEKLL[Aib]KLHTAK (not fully specified (residue 35); also: prints K at position 33) [L021-HDO6]
[5]
  IC50 of lowering Malat1 ncRNA expression level in the mPth1R-stably expressing cell line: 46.8 nM

B2: L005-HDO6 (peptide)
peptide: HQLLHDKGKSIQDLRRRELLEKLLAKLHKA
modifications: not fully specified (residue 29); printed as HQLLHDKGKSIQDLRRRELLEKLLAKLH(K-PEG3-Unit)A
[5]
  IC50 of lowering Malat1 ncRNA expression level in the mPth1R-stably expressing cell line: 121 nM

## AVSEHQLLHDKGKSIQDLRRRELLEKLLAKLHKA (not fully specified (residue 33)) [L001-ASO]
[5]
  IC50 of lowering Malat1 ncRNA expression level in the mPth1R-stably expressing cell line: 1.25 nM

## SEHQLLHDKGKSIQDLRRRELLEKLLAKLHKA (not fully specified (residue 31)) [L003-HDO6]
[5]
  IC50 of lowering Malat1 ncRNA expression level in the mPth1R-stably expressing cell line: 88.9 nM
